Measurements taken from US10119137B2, “Methods used to treat cancer” (THE TRANSLATIONAL GENOMICS RESEARCH INSTITUTE, priority 2015, dated 2018).

Tests used:
Type in all cases: cell-based, Human
U87 glioma cells = experiment: Histone H2A.X phosphorylation immunoblot after TMZ; conditions: U87, TMZ 500 μM, control or SGEF depleted conditions
Method: (§1) For immunoblotting, cells were lysed in 2×SDS sample buffer (0.25 M Tris-HCl, pH 6.8, 10% SDS, 25% glycerol) containing 10 μg/mL aprotinin, 10 μg/mL leupeptin, 20 mM NaF, 2 mM sodium orthovanadate, and 1 mM phenylmethylsulfonyl fluoride. Protein concentrations were determined using the BCA assay (Pierce) with bovine serum albumin as a standard. Thirty micrograms of total protein were loaded per lane and separated by SDS PAGE. After 4° C. transfer, the nitrocellulose (Invitrogen) was blocked with either 5% nonfat milk or 5% BSA in Tris-buffered saline, pH 8.0, containing 0.1% Tween 20 (TBST) prior to addition of primary antibodies and followed with peroxidase-conjugated anti-mouse IgG or anti-rabbit IgG. Protein was detected using SuperSignal West Dura Chemiluminescent Substrate (Thermo Scientific) with a UVP BioSpectrum 500 Imaging System (Upland, Calif.). Densitometry was calculated via Image J software.

[1] = tested on: SGEF promoter NF-κB p65 consensus sequence; experiment: Biotinylated electrophoretic mobility shift assay, NF-κB binding site of the SGEF promoter; conditions: T98G nuclear proteins 2 hours after TWEAK 100 ng/mL
Method: T98G glioma cells were plated at a density of 3×10^6 in 100 mm^2 tissue culture dishes in normal growth medium. After 12 h, cells were cultured under reduced serum (0.5% FBS) for an additional 16 h before TWEAK (100 ng/mL) addition for 2 h. Isolation of cell nuclear protein was carried out using the NE-PER kit (Pierce) according to the protocol of the manufacturer. Protein-DNA complexes were detected using biotin end-labeled double-stranded DNA 23-mer probes containing the NF-κB binding sites within the SGEF promoter (NF-κB-SGEF wt target sequence: 5′-GTCTAGGAGGCAAATCCCAGAAA-3′ (SEQ ID NO:5); NF-κB-SGEF mt target sequence: 5′-GTCTAGGAGCCAGATCGCAGAAA-3′(SEQ ID NO:6)). The binding reactions were done using the LightShift kit (Pierce) according to the protocol of the manufacturer. Where indicated, 200-fold molar excess of unlabeled NF-κB-SGEF wt oligonucleotides or anti-p65 antibody was included. The reaction products were resolved by gel electrophoresis and detected by chemiluminescence according to the protocol of the manufacturer (Pierce).

[2] = tested on: T98G and U118 glioma cells; experiment: TWEAK stimulation: SGEF mRNA (qPCR) and protein (western blot) expression; conditions: TWEAK 100 ng/mL, increase apparent within two hours
Method: Human astrocytoma cell lines U87, U118, and T98G (American Type Culture Collection), as well as primary glioblastoma xenograft cells (GBM & GBM TMZ-R lines) were maintained in DMEM (Gibco, USA) supplemented with 10% heat-inactivated fetal bovine serum (FBS; Gibco, USA) at 37° C. with 5% CO2. For all assays with TWEAK treatment, cells were cultured in reduced serum (0.5% fetal bovine serum) for 16 h before stimulation with recombinant TWEAK at 100 ng/mL in DMEM+0.1% bovine serum albumin for the indicated times.
as §1, with “After 4° C. transfer, the nitrocellulose (Invitrogen) was blocked with either 5% nonfat milk or 5% BSA in Tris-buffered saline, pH 8.0, containing 0.1% Tween 20 (TBST) prior to addition of primary antibodies and followed with peroxidase-conjugated anti-mouse IgG or anti-rabbit IgG.” left out, “software. […]” for “software.”

| Molecule | time to phosphorylation of H2A.X after TMZ treatment (U87 glioma cells) | NF-κB binding to the SGEF promoter region [1] | SGEF mRNA levels [2] | SGEF protein levels [2] |
| --- | --- | --- | --- | --- |
| Cn1nnc2c(C(N)=O)ncn2c1=O [TMZ, temozolomide] | ≤ 30 min | – | – | – |
| TWEAK: Human recombinant TWEAK, tumor necrosis factor-like weak inducer of apoptosis, cytokine ligand of Fn14 (protein) SAPKGRKTRARRAIAAHYEVHPRPGQDGAQAGVDGTVSGWEEARINSSSPLRYNRQIGEFIVTRAGLYYLYCQVHFDEGKAVYLKLDLLVDGVLALRCLEEFSATAASSLGPQLRLCQVSGLLALRPGSSLRIRTLPWAHLKAAPFLTYFGLFQVH | – | NF-κB binds to the SGEF promoter region | increased | increased |
